Results from PMC8639797.

Target: ALK ECR^ABR variants with single substitutions in the TNF-like or EGF-like domains (BLI, Fig. 2d)
Test: BLI

fold reduction of affinity against wild type: 2 to 3 fold
B1: ALKAL2-AD (residues 77–152) (domain or fragment)
chain: GPSPEQRVEIVPRDLRMKDKFLKHLTGPLYFSPKCSKHFHRLYHNTRDCTIPAYYKRCARLLTRLAVSPVCMEDKQ
